Source: the supplement of paper PMC6757056
± gives the standard deviation of the averaged measurements.

B1: library; a variant is named by its letters at N, in order (parent)
chain: GCUGUCACCGGUGUAUUACCCUAGUGGUCGACCGGUCUGAUGAGUCUNNNNNNAGACGAAACAGC

How the values were obtained:
hypoxanthine [1] = variants of: B1; assay: FACS-Seq fitted mean relative fluorescence mCherry/BFP without ligand (log10 relative fluorescence); ligand: hypoxanthine (xanthine aptamer); higher = higher reporter protein expression; settings: HEK293T, ligand present: no
Outline: (§1)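 To measure fluorescence, a normal distribution was fitted to read counts across sorted bins. The reporter libraries were HEK293T cells transduced by lentivirus with mCherry under ribozyme-switch control and an EF1α-BFP marker, enriched and then kept with or without ligand for 48 h. Sorting used 6 mCherry/BFP bins, and bin genomic DNA was PCR-amplified and sequenced on MiSeq. Fitted means of log10(mCherry/BFP) were scaled to five spiked-in control ribozymes.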

hypoxanthine [2] = variants of: B1; assay: normalized RNA/DNA level with ligand (relative to sTRSVctl = 100) (log10 (% of sTRSVctl)); ligand: hypoxanthine (xanthine aptamer); higher = less ribozyme self-cleavage, higher mRNA level; settings: ligand concentration (+) RNA-Seq: 5 mM, HEK293T, reporter: mCherry (pCS4076), ligand present: yes
Outline: (§2)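 HEK293T cells were transfected with library plasmids carrying ribozyme switches linked to an mCherry reporter, or an eGFP reporter in some ligand experiments, at 4 µg per well of a 6-well plate, with any ligand added 1 h beforehand. After 72 h, total RNA was extracted with EDTA, reverse-transcribed, amplified, barcoded and sequenced. RNA level was defined as RNA reads over DNA reads, normalized to a spiked-in non-cleaving sequence or to the top-ranked sequences. That value was multiplied by 100 and converted to log10, the top set was 25 sequences, and only sequences with ≥100 DNA reads were retained.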

hypoxanthine [3] = variants of: B1; assay: normalized RNA/DNA level without ligand (relative to sTRSVctl = 100) (log10 (% of sTRSVctl)); ligand: hypoxanthine (xanthine aptamer); higher = less ribozyme self-cleavage, higher mRNA level; settings: HEK293T, reporter: mCherry (pCS4076), ligand present: no
Outline: as §2

hypoxanthine [4] = variants of: B1; assay: FACS-Seq fitted mean relative fluorescence mCherry/BFP with ligand (log10 relative fluorescence); ligand: hypoxanthine (xanthine aptamer); ligand concentration (+) FACS-Seq: 5 mM; higher = higher reporter protein expression; settings: HEK293T, ligand present: yes
Outline: as §1

Variant	FACS-Seq fitted mean (log10) (hypoxanthine [1])	normalized RNA/DNA level with ligand (log10) (hypoxanthine [2])	normalized RNA/DNA level without ligand (log10) (hypoxanthine [3])	FACS-Seq fitted mean (log10) (hypoxanthine [4])
ACACUG	0.4461 ± 0.0036	1.9 ± 0.021	1.42 ± 0.097	0.795 ± 0.052
AAUUAA	0.435 ± 0.032	1.893 ± 0.0034	1.764 ± 0.0032	0.276 ± 0.14
AAUUAC	0.511 ± 0.13	1.96 ± 0.04	1.823 ± 0.016	0.516 ± 0.022
AAUUAG	0.404 ± 0.012	1.86 ± 0.037	1.52 ± 0.032	0.681 ± 0.03
GAUUAA	0.276 ± 0.0053	1.949 ± 0.012	1.79 ± 0.044	0.381 ± 0.012
GAUUAU	0.368 ± 0.062	1.945 ± 0.0077	1.839 ± 0.012	0.455 ± 0.019
GAUUAC	0.748 ± 0.036	1.935 ± 0.0039	1.8 ± 0.049	0.749 ± 0.12
GAUUAG	0.0562 ± 0.066	1.86 ± 0.075	1.39 ± 0.014	0.539 ± 0.085
AAUGGA	0.265 ± 0.081	1.88 ± 0.022	1.61 ± 0.038	0.192 ± 0.36
AAUGGG	0.049 ± 0.035	1.77 ± 0.052	1.25 ± 0.063	0.547 ± 0.047
ACAGGU	0.51 ± 0.04	1.858 ± 0.0068	1.49 ± 0.082	0.744 ± 0.054
ACAGGG	0.428 ± 0.034	1.83 ± 0.038	1.44 ± 0.032	0.788 ± 0.041
ACAGGA	0.278 ± 0.028	1.905 ± 0.013	1.66 ± 0.043	0.473 ± 0.069
AAUUGG	0.22 ± 0.02	1.872 ± 0.014	1.405 ± 0.0046	0.658 ± 0.036
AAUUGA	-0.0788 ± 0.062	1.9 ± 0.041	1.73 ± 0.018	-0.112 ± 0.16
GCACCU	0.968 ± 0.14	1.942 ± 0.0073	1.94 ± 0.044	0.785 ± 0.08
UAUCGC	0.437 ± 0.11	1.947 ± 0.015	1.86 ± 0.047	0.239 ± 0.064
UAUCGG	0.2578 ± 0.0003	1.86 ± 0.024	1.47 ± 0.027	0.5888 ± 0.0049
UCACAU	-0.364 ± 0.044	1.93 ± 0.051	1.8 ± 0.021	0.26 ± 0.027
AAUGAC	0.585 ± 0.07	1.894 ± 0.0079	1.83 ± 0.049	0.5447 ± 0.0044
AAUGAG	0.0392 ± 0.012	1.81 ± 0.039	1.3 ± 0.022	0.472 ± 0.044
AAUGAU	0.38227 ± 0.00021	1.88 ± 0.041	1.683 ± 0.0061	0.571 ± 0.06
UCAAUC	0.3976 ± 0.0018	2.0151 ± 0.001	2 ± 0.024	0.543 ± 0.12
GCACGG	-0.136 ± 0.023	1.86 ± 0.026	1.444 ± 0.009	0.376 ± 0.087

Variant	FACS-Seq fitted mean (log10) (hypoxanthine [1])	normalized RNA/DNA level with ligand (log10) (hypoxanthine [2])	normalized RNA/DNA level without ligand (log10) (hypoxanthine [3])	FACS-Seq fitted mean (log10) (hypoxanthine [4])
GCAACA	-0.108 ± 0.043	1.96 ± 0.027	1.85 ± 0.059	-0.0215 ± 0.13
ACAAUG	0.37 ± 0.017	1.87 ± 0.061	1.56 ± 0.053	0.638 ± 0.044
ACAAUA	0.442 ± 0.015	1.916 ± 0.017	1.81 ± 0.015	0.552 ± 0.018
UCAGGA	0.301 ± 0.039	1.89 ± 0.02	1.44 ± 0.047	0.6634 ± 0.0026
UCAGGG	0.486 ± 0.02	1.951 ± 0.015	1.69 ± 0.065	0.704 ± 0.067
CCAAAU	0.00231 ± 0.0079	1.93 ± 0.0062	1.83 ± 0.058	0.404 ± 0.042
CCAAAC	0.763 ± 0.049	1.93 ± 0.038	1.875 ± 0.012	0.528 ± 0.086
CAUCGA	0.435 ± 0.017	1.97 ± 0.052	1.84 ± 0.029	0.6297 ± 0.0034
ACAGAU	0.263 ± 0.00091	1.89 ± 0.033	1.64 ± 0.049	0.461 ± 0.069
ACAGAG	0.0524 ± 0.0076	1.79 ± 0.044	1.34 ± 0.041	0.353 ± 0.058
GCAAGA	0.209 ± 0.025	1.94 ± 0.045	1.708 ± 0.0095	0.332 ± 0.0071
AAUCGG	0.134 ± 0.047	1.837 ± 0.013	1.373 ± 0.006	0.58 ± 0.038
AAUUCG	0.321 ± 0.022	1.9 ± 0.041	1.52 ± 0.043	0.729 ± 0.034
AAUUCA	0.486 ± 0.061	1.93 ± 0.049	1.86 ± 0.025	0.567 ± 0.082
UAUGUG	-0.0408 ± 0.016	1.91 ± 0.022	1.7 ± 0.034	0.0665 ± 0.031
UAUGUC	-0.423 ± 0.035	1.944 ± 0.011	1.95 ± 0.053	-0.356 ± 0.048
GCAGGA	0.661 ± 0.024	1.9091 ± 0.0012	1.72 ± 0.035	0.705 ± 0.051
GCAGGG	-0.0762 ± 0.0096	1.88 ± 0.028	1.506 ± 0.0099	0.479 ± 0.017
ACAGCG	0.12 ± 0.062	1.92 ± 0.028	1.67 ± 0.0018	0.456 ± 0.065
AAUUUG	0.3 ± 0.021	1.873 ± 0.012	1.57 ± 0.046	0.468 ± 0.064
AAUGCA	0.304 ± 0.078	1.9039 ± 0.0013	1.772 ± 0.012	0.563 ± 0.029
AAUGCG	-0.0193 ± 0.038	1.85 ± 0.03	1.42 ± 0.089	0.462 ± 0.044
UAUUAC	0.513 ± 0.025	1.9 ± 0.054	1.823 ± 0.018	0.512 ± 0.011
UAUUAA	0.486 ± 0.054	1.89 ± 0.0083	1.86 ± 0.022	0.724 ± 0.088

Variant	FACS-Seq fitted mean (log10) (hypoxanthine [1])	normalized RNA/DNA level with ligand (log10) (hypoxanthine [2])	normalized RNA/DNA level without ligand (log10) (hypoxanthine [3])	FACS-Seq fitted mean (log10) (hypoxanthine [4])
UAUUAU	0.643 ± 0.015	1.93 ± 0.023	1.8 ± 0.028	0.594 ± 0.024
GCAAAC	0.411 ± 0.03	1.91 ± 0.023	1.6 ± 0.036	0.455 ± 0.055
GCAAAU	-0.00409 ± 0.019	1.932 ± 0.0088	1.75 ± 0.043	0.371 ± 0.013
CAUUAU	0.7325 ± 0.0015	1.9 ± 0.08	1.8 ± 0.021	0.778 ± 0.098
CAUUAA	0.176 ± 0.0055	1.87 ± 0.071	1.712 ± 0.015	0.306 ± 0.052
AAUGUG	0.203 ± 0.0069	1.82 ± 0.026	1.39 ± 0.05	0.573 ± 0.036
AAUGUA	0.284 ± 0.0037	1.9 ± 0.088	1.79 ± 0.047	0.204 ± 0.0096
AAUGUU	0.678 ± 0.033	1.9 ± 0.072	1.85 ± 0.038	0.605 ± 0.077
UAUGAC	0.282 ± 0.084	1.95 ± 0.047	1.807 ± 0.01	0.457 ± 0.11
CAUGAU	0.296 ± 0.088	1.905 ± 0.0035	1.73 ± 0.032	0.333 ± 0.077
CAUGAG	-0.0522 ± 0.019	1.924 ± 0.011	1.562 ± 0.0089	0.35 ± 0.039
CAUGAA	0.0197 ± 0.067	1.87 ± 0.026	1.68 ± 0.022	0.341 ± 0.056
CAUGAC	-0.299 ± 0.099	1.937 ± 0.006	1.793 ± 0.017	0.254 ± 0.046
CCACCC	0.2004 ± 0.0019	1.93 ± 0.044	1.93 ± 0.045	0.312 ± 0.0055
CCAACU	0.611 ± 0.037	2.02 ± 0.025	1.945 ± 0.012	0.58 ± 0.015
CCAACC	0.551 ± 0.044	1.94 ± 0.021	1.95 ± 0.054	0.584 ± 0.055
UAUUGG	0.528 ± 0.017	1.87 ± 0.031	1.431 ± 0.011	0.745 ± 0.06
UAUUGU	0.106 ± 0.0092	1.92 ± 0.044	1.7 ± 0.026	0.411 ± 0.049
ACACGA	-0.273 ± 0.0021	1.91 ± 0.062	1.73 ± 0.058	0.145 ± 0.0024
ACACGU	0.624 ± 0.02	1.95 ± 0.079	1.823 ± 0.0069	0.572 ± 0.096
ACACGG	-0.144 ± 0.07	1.79 ± 0.053	1.32 ± 0.041	0.465 ± 0.024
CCAAUG	0.585 ± 0.11	1.929 ± 0.011	1.61 ± 0.046	0.683 ± 0.023
GCACAG	0.227 ± 0.034	1.863 ± 0.00078	1.45 ± 0.021	0.0639 ± 0.076
